Source: patent US20120077731A1 (Ablynx, published 2012)
“And” between values parts separate entries of the source, which are not always exact repeats. Identical values can stand only once.

T1: Human soluble IL-6R (human, UniProt P08887 20-358)
T1 construct: Soluble recombinant form; biotinylated in some assays; also called hIL-6R; human IL-6R
T1 sequence (looked up): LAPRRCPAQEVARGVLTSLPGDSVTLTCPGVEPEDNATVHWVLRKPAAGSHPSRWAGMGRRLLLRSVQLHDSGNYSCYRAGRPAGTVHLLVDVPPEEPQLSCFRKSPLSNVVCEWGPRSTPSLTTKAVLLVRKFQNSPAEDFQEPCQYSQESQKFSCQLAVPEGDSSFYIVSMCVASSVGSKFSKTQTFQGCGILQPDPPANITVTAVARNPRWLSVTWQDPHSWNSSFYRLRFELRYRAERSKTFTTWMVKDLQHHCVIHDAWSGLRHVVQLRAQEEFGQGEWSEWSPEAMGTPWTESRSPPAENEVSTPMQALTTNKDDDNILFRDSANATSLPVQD

T2: Human plasma sIL-6R (human, UniProt P08887 20-355, limits assumed)
T2 construct: also called plasma-derived human IL-6R
T2 sequence (looked up): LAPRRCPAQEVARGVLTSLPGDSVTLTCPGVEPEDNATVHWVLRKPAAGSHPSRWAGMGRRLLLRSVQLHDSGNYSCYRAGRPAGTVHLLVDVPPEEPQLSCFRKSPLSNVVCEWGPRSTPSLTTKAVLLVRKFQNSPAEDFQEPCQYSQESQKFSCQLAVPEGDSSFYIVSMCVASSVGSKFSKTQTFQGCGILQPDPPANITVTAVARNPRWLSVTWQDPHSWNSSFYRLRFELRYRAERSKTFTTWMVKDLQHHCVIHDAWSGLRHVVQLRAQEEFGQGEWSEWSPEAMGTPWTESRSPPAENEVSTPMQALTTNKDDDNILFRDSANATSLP

T3: Human membrane IL-6R on cells (human, UniProt P08887 20-468)
T3 sequence (looked up): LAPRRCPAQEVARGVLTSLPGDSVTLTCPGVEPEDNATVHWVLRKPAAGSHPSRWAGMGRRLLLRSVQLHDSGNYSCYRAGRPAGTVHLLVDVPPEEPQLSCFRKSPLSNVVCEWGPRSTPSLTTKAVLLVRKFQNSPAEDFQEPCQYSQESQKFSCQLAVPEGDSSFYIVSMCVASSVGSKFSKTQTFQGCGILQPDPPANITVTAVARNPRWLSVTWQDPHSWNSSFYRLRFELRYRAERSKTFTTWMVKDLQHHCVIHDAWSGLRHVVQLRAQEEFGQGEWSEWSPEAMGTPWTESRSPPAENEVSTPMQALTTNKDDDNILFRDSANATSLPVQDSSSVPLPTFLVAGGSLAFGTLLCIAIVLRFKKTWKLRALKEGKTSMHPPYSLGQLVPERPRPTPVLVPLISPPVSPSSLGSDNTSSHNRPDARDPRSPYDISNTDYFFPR

T4: Mouse IL-6R (mouse, UniProt P22272 20-364, limits assumed)
T4 construct: also called mouse sIL-6R
T4 sequence (looked up): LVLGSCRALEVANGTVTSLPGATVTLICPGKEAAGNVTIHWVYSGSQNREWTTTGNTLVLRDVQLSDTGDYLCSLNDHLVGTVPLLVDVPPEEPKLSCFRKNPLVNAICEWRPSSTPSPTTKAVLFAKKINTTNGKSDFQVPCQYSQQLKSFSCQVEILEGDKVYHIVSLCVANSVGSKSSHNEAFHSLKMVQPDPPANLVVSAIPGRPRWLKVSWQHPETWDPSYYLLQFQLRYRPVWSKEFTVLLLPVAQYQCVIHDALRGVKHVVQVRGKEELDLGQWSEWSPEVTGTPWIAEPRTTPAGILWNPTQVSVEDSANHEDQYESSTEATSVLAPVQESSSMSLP

T5: Cyno plasma sIL-6R (cynomolgus monkey, UniProt A0A2K5WN54 60-396)
T5 construct: also called cynomolgus sIL-6R
T5 sequence: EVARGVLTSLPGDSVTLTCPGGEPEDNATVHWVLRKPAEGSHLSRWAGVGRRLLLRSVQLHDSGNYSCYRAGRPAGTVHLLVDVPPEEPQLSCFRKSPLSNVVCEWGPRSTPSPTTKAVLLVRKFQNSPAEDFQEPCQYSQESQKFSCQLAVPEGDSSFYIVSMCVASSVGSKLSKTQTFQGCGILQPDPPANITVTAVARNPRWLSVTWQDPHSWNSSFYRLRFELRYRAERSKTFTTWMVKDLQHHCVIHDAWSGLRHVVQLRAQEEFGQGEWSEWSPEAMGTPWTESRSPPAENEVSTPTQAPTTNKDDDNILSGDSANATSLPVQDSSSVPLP

B1: IL6R04 (VHH)
VHH: EVQLVESGGGLVQAGGSLRLSCAASGFTFDDYDIGWFRQAPGKEREGVSGISSSDGNTYYADSVKGRFTISSDNAKNTVYLQMNSLKPEDTAVYYCAAEPPDSSWYLDGSPEFFKYWGQGTQVTVSS
notes: also called PMP32C9; not shown: C-terminal c-myc and (His)6 tags
B2: IL6R65 (VHH)
VHH: EVQLVESGGGLVQPGGSLRLSCAASGSIFKVNAMGWYRQAPGKGRELVAGIISGGSTNYADSVKGRFTISRDNAKNTLYLQMNSLRPEDTAVYYCAFVTTNSDYDLGRDYWGQGTLVTVSS
notes: also called ILR65; parent Nanobody
B3: Cyno IL-6R (receptor, cynomolgus monkey)
chain: T5 sequence
notes: also called cynomolgus monkey IL-6R; recombinant cyno sIL-6R

Legend:
Human soluble IL-6R [1] = molecular target: T1, Human soluble IL-6R; experiment: inhibition of the IL-6/IL-6R interaction, summary table C-13
Experimental: (§1) Finally streptavidin donor beads were added and after 1 hour incubator the plate was read on the Envision microplate reader.

Human soluble IL-6R [2] = molecular target: T1, Human soluble IL-6R; experiment: summary table C-13 of Nanobody characteristics, Kd on IL-6R
Experimental: (§2) Nanobodies were injected at 5 different concentrations between 1 and 50 nM. Flow rate was 45 μl/min in all experiments. Association and dissociation phase were 3 and 10 min, respectively. The chip was regenerated using Glycine/HCl pH 1.5.

Human plasma sIL-6R [3] = molecular target: T2, Human plasma sIL-6R; experiment: plasma potency ELISA in human plasma at the EC95 of IL-6 (885 ng/mL); blocked ligand IL-6
Human soluble IL-6R [4] = molecular target: T1, Human soluble IL-6R; experiment: SPR Biacore 3000, IL-6R amine-coupled to CM5
Experimental: as §2

Human soluble IL-6R [5] = molecular target: T1, Human soluble IL-6R; experiment: Biacore, binding to IL-6R (parent value)
Cyno IL-6R = molecular target: B3; experiment: SPR Biacore 3000, cyno IL-6R amine-coupled to CM5
Experimental: Remaining reactive groups were inactivated. […] Each sample was injected for 4 min at a flow rate of 45 μl/min to allow for binding to chip-bound antigen. Next, binding buffer without Nanobody was sent over the chip at the same flow rate to allow for dissociation of bound Nanobody.

[6] = molecular target: T3, Human membrane IL-6R on cells; experiment: cell-based or functional assay
Human soluble IL-6R [7] = molecular target: T1, Human soluble IL-6R; experiment: Biacore off-rate, periplasmic extract
Human soluble IL-6R [8] = molecular target: T1, Human soluble IL-6R; experiment: Alphascreen, 100 nM Nanobody, 0.4 nM bio-IL-6R; competitor: reference Fab
[9] = molecular target: T3, Human membrane IL-6R on cells; experiment: cell-based or functional assay; remark: listed apart in the source
[10] = molecular target: T3, Human membrane IL-6R on cells; experiment: cell-based or functional assay; remark: listed apart in the source
Mouse IL-6R = molecular target: T4, Mouse IL-6R; experiment: ELISA: plate coated with 1 µg/ml mouse IL-6R, 500 nM Nanobody, anti-myc + anti-mouse-HRP
Experimental: Detection was performed with anti-myc and anti-mouse-HRP as first and second antibody respectively.

Human soluble IL-6R [11] = molecular target: T1, Human soluble IL-6R; experiment: Alphascreen IL-6/IL-6R competition with purified Nanobody; row EC50 of the table, axis [inhibitor], M; blocked ligand IL-6
Human plasma sIL-6R [12] = molecular target: T2, Human plasma sIL-6R; experiment: plasma potency ELISA in human plasma at the EC50 of IL-6 (50 ng/mL); blocked ligand IL-6
[13] = molecular target: T3, Human membrane IL-6R on cells; experiment: cell-based or functional assay; remark: listed apart in the source
Human soluble IL-6R [14] = molecular target: T1, Human soluble IL-6R; experiment: Alphascreen, inhibition of bio-IL-6 binding to IL-6R
Experimental: as §1

Human soluble IL-6R [15] = molecular target: T1, Human soluble IL-6R; experiment: Alphascreen IL-6/IL-6R competition (IL-6R 0.3 nM, bio-IL-6 3 nM); row EC50 of the fit table, axis [competitor], M; blocked ligand IL-6
Human soluble IL-6R [16] = molecular target: T1, Human soluble IL-6R; experiment: competition for IL-6R, competitor reference Fab, summary table C-13
Cyno plasma sIL-6R [17] = molecular target: T5, Cyno plasma sIL-6R; experiment: plasma potency assay, cyno plasma, 2.4 nM IL6; blocked ligand IL-6
Experimental: (§3) All 5 affinity matured Nanobodies and the sequence optimized Nanobody were also tested in a plasma potency assay. […] TMB was used as substrate.

Cyno plasma sIL-6R [18] = molecular target: T5, Cyno plasma sIL-6R; experiment: plasma potency ELISA, cyno plasma + human IL-6 50 ng/mL; sIL-6R captured on BN-12, bound IL-6 detected; blocked ligand IL-6
Human plasma sIL-6R [19] = molecular target: T2, Human plasma sIL-6R; experiment: plasma potency assay, human plasma ([IL6R]: ~0.4 nM, [IL6]: 2.4 nM printed); sIL-6R captured on BN-12, bound IL-6 detected; blocked ligand IL-6
Human plasma sIL-6R [20] = molecular target: T2, Human plasma sIL-6R; experiment: plasma potency assay, human plasma, 42 nM IL6; blocked ligand IL-6
Experimental: as §3

Human plasma sIL-6R [21] = molecular target: T2, Human plasma sIL-6R; experiment: plasma potency assay, human plasma, 42 nM IL6; sIL-6R captured on BN-12, bound IL-6 detected; blocked ligand IL-6
Human soluble IL-6R [22] = molecular target: T1, Human soluble IL-6R; experiment: Biacore T100, IL-6R covalently coupled
Human plasma sIL-6R [23] = molecular target: T2, Human plasma sIL-6R; experiment: plasma potency ELISA, human plasma, IL-6 at EC95 (885 ng/mL)
Human soluble IL-6R [24] = molecular target: T1, Human soluble IL-6R; experiment: SPR (Biacore), binding curves at several concentrations of purified Nanobody on IL-6R
Human plasma sIL-6R [25] = molecular target: T2, Human plasma sIL-6R; experiment: plasma potency assay, human plasma, 2.4 nM IL6; blocked ligand IL-6
Experimental: as §3

Human soluble IL-6R [26] = molecular target: T1, Human soluble IL-6R; experiment: SPR Biacore 3000, human IL-6R amine-coupled to CM5
Experimental: Remaining reactive groups were inactivated. Nanobody binding was assessed at various concentrations ranging from 0.5 to 50 nM. Each sample was injected for 4 min at a flow rate of 45 μl/min to allow for binding to chip-bound antigen. Next, binding buffer without Nanobody was sent over the chip at the same flow rate to allow for dissociation of bound Nanobody.

Human soluble IL-6R [27] = molecular target: T1, Human soluble IL-6R; experiment: Biacore T100
Cyno plasma sIL-6R [28] = molecular target: T5, Cyno plasma sIL-6R; experiment: plasma potency assay, cyno plasma ([IL6R]: ~0.4 nM, [IL6]: 2.4 nM printed); sIL-6R captured on BN-12, bound IL-6 detected; blocked ligand IL-6
Human soluble IL-6R [29] = molecular target: T1, Human soluble IL-6R; experiment: Biacore T100, IL-6R captured via mAb BN-12
Human plasma sIL-6R [30] = molecular target: T2, Human plasma sIL-6R; experiment: plasma potency ELISA, human plasma, IL-6 at EC50 (50 ng/mL)
Human plasma sIL-6R [31] = molecular target: T2, Human plasma sIL-6R; experiment: plasma potency ELISA, human plasma + human IL-6 50 ng/mL; sIL-6R captured on BN-12, bound IL-6 detected; blocked ligand IL-6
PMP20A11 = molecular target: T6, PMP20A11; experiment: competition ELISA: IL6R20A11 (0.4 nM) pre-incubated with a series of recombinant sIL-6R; free IL6R20A11 captured on biotinylated human sIL-6R on neutravidin
T6 construct: also called IL6R20A11; IL6R300; not shown: c-myc and (His)6 tags

B1 was tested, and the IC50 (Human soluble IL-6R [1]) was 0.09 nM, the Kd (Human soluble IL-6R [2]) was 0.3 nM and the “IC50 (read off the curve)” value (Human plasma sIL-6R [3]) was roughly 0.4 nM. The Kd (Human soluble IL-6R [4]) was 0.3 nM, the koff (Human soluble IL-6R [4]) was 9.42e-05 s⁻¹ and 0.00015 s⁻¹ and the kon (Human soluble IL-6R [4]) was 365000 M⁻¹ s⁻¹. The Kd (Human soluble IL-6R [5]) was 0.3 nM, the Kd (Cyno IL-6R) was 171 nM and the koff (Cyno IL-6R) was 0.01 s⁻¹. The kon (Cyno IL-6R) was 58600 M⁻¹ s⁻¹, the “IC50 (nM), TF1 cell proliferation” value [6] was 0.4 nM and the koff (Human soluble IL-6R [7]) was 0.00015 s⁻¹. For the same binder, the “Residual reference-Fab binding to IL-6R (%)” value (Human soluble IL-6R [8]) was 50%, the “IC50 (nM) + HSA, XG-1 cell proliferation” value [9] was 0.1 nM and the “IC50 (nM), XG-1 cell proliferation” value [9] was 0.1 nM. For the same binder, the “IC50 values (nM), XG-1 assay” value [10] was 0.1 nM, the binding result (Mouse IL-6R) was “no binding (tested: 500 nM)” and the IC50 (Human soluble IL-6R [11]) was 0.0568 nM. For the same binder, the “IC50 (read off the curve)” value (Human plasma sIL-6R [12]) was roughly 0.2 nM, the “IC50 (nM) XG-1” value [13] was 0.1 nM and the IC50 (Human soluble IL-6R [14]) was 0.093 nM. For the same binder, the IC50 (Human soluble IL-6R [15]) was 0.18 nM and the “Ref Fab competition (%)” value (Human soluble IL-6R [16]) was 50%.

B2 was tested, and the IC50 (Cyno plasma sIL-6R [17]) was 0.9 nM, the “IC50 (read off the curve)” value (Cyno plasma sIL-6R [18]) was roughly 0.1 nM and the IC50 (Human plasma sIL-6R [19]) was 4.93 nM. For the same binder, the IC50 (Human plasma sIL-6R [20]) was 24.8 nM, the IC50 (Human plasma sIL-6R [21]) was 61.5 nM and the koff (Human soluble IL-6R [22]) was 0.0038 s⁻¹. It also gave an IC50 (Human plasma sIL-6R [23]) of 66.2 nM, a Kd (Human soluble IL-6R [24]) of 4.3 nM and an IC50 (Human plasma sIL-6R [25]) of 1.9 nM. The Kd (Cyno IL-6R) was 12 nM, the koff (Cyno IL-6R) was 0.00197 s⁻¹ and the kon (Cyno IL-6R) was 165000 M⁻¹ s⁻¹. The Kd (Human soluble IL-6R [26]) was 4 nM, the koff (Human soluble IL-6R [26]) was 0.00235 s⁻¹ and the kon (Human soluble IL-6R [26]) was 600000 M⁻¹ s⁻¹. The Kd (Human soluble IL-6R [27]) was 3.8 nM, the IC50 (Cyno plasma sIL-6R [28]) was 2.99 nM and the “IC50 values (nM), XG-1 assay” value [10] was 26 nM. It also gave a kon (Human soluble IL-6R [29]) of 1e+06 M⁻¹ s⁻¹, an IC50 (Human soluble IL-6R [11]) of 0.147 nM and an IC50 (Human plasma sIL-6R [30]) of 2.61 nM. The “IC50 (read off the curve)” value (Human plasma sIL-6R [31]) was roughly 0.7 nM.

In the case of B3, the “IC50 (read off the curve)” value (PMP20A11) is reported as roughly 3 ng/mL.
